Measurements reported in patent US20200199213A1 (Eli Lilly, published 2020).

Molecular target: T1, mouse LPL (mouse, UniProt P11152 28-474)
T1 sequence (looked up): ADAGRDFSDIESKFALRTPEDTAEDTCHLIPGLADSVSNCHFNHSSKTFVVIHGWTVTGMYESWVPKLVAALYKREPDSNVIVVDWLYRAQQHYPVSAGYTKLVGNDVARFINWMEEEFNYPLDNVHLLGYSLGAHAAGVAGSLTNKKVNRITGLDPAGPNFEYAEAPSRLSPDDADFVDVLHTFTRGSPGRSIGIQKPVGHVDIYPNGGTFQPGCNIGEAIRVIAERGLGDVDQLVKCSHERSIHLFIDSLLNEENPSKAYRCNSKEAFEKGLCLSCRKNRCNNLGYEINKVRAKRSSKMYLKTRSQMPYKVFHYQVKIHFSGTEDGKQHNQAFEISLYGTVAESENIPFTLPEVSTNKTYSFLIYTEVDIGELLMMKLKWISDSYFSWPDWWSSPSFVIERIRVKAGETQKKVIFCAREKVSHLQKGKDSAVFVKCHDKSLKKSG
Experiment: cell-based or functional assay

B1: mouse ANGPTL3/8 complex (other)
chain 1: SRVDPDLSSFDSAPSEPKSRFAMLDDVKILANGLLQLGHGLKDFVHKTKGQINDIFQKLNIFDQSFYDLSLRTNEIKEEEKELRRTTSTLQVKNEEVKNMSVELNSKLESLLEEKTALQHKVRALEEQLTNLILSPAGAQEHPEVTSLKSFVEQQDNSIRELLQSVEEQYKQLSQQHMQIKEIEKQLRKTGIQEPSENSLSSKSRAPRTTPPLQLNETENTEQDDLPADCSAVYNRGEHTSGVYTIKPRNSQGFNVYCDTQSGSPWTLIQHRKDGSQDFNETWENYEKGFGRLDGEFWLGLEKIYAIVQQSNYILRLELQDWKDSKHYVEYSFHLGSHETNYTLHVAEIAGNIPGALPEHTDLMFSTWNHRAKGQLYCPESYSGGWWWNDICGENNLNGKYNKPRTKSRPERRRGIYWRPQSRKLYAIKSSKMMLQPTT
chain 2: VRPAPVAPLGGPEPAQYEELTLLFHGALQLGQALNGVYRATEARLTEAGHSLGLYDRALEFLGTEVRQGQDATQELRTSLSEIQVEEDALHLRAEATARSLGEVARAQQALRDTVRRLQVQLRGAWLGQAHQEFETLKARADKQSHLLWALTGHVQRQQREMAEQQQWLRQIQQRLHTAALPA
- IC80 concentration (inhibition of LPL activity): 0.13 nM
